Patent US20250262210A1 (TRUSTEES OF COLUMBIA UNIVERSITY IN THE CITY OF NEW YORK, published 2025)

Assays:
ALPK2 = ALPK2 (human, UniProt Q86TB3 1-2170); experiment: IP/MS, LZTR1 R810W-FLAG, U87
Summary of the method: (§1)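 Extracted peptides in 3% acetonitrile/0.1% formic acid ran on a 50 cm C18 column into an Orbitrap Fusion, with MaxQuant identification and spectral counting.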

RAPH1 = target: T1, RAPH1 (human, UniProt Q70E73 1-1250, limits assumed); experiment: IP/MS, LZTR1 R810W-FLAG, U87
T1 sequence (looked up): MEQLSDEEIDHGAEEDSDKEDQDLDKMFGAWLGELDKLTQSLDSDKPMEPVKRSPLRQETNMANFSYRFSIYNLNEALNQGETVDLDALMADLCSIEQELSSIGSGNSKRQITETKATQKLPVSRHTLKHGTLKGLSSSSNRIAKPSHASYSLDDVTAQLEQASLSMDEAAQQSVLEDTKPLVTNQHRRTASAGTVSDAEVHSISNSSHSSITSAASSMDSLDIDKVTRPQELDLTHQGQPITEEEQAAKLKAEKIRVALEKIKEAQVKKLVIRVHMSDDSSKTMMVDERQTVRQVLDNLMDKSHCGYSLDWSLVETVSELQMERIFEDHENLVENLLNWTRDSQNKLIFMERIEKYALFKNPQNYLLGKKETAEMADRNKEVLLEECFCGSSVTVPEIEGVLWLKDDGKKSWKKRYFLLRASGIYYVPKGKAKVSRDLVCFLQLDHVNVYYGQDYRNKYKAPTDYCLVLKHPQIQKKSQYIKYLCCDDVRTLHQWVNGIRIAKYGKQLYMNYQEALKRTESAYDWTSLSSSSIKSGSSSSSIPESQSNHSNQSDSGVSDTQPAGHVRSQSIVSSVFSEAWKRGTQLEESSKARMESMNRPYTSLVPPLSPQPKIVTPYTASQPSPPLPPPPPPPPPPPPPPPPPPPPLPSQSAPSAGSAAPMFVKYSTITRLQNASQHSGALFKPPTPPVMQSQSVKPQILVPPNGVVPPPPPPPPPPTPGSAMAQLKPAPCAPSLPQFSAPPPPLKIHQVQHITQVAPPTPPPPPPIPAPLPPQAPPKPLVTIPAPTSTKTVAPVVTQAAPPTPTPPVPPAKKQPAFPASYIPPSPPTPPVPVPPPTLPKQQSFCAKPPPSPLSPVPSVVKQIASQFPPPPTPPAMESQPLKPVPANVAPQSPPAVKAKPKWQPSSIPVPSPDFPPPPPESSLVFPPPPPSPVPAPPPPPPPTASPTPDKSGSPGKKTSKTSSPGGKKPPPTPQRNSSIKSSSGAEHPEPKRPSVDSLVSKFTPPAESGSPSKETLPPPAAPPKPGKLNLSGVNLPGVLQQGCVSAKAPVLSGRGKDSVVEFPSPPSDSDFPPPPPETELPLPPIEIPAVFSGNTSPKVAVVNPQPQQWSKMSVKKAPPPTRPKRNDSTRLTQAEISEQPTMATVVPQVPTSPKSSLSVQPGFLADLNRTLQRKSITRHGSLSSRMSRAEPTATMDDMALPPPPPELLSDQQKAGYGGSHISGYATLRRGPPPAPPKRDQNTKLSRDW
Summary of the method: as §1

Chain of ALPK2 (Q86TB3 whole entry, the tested form may be a part): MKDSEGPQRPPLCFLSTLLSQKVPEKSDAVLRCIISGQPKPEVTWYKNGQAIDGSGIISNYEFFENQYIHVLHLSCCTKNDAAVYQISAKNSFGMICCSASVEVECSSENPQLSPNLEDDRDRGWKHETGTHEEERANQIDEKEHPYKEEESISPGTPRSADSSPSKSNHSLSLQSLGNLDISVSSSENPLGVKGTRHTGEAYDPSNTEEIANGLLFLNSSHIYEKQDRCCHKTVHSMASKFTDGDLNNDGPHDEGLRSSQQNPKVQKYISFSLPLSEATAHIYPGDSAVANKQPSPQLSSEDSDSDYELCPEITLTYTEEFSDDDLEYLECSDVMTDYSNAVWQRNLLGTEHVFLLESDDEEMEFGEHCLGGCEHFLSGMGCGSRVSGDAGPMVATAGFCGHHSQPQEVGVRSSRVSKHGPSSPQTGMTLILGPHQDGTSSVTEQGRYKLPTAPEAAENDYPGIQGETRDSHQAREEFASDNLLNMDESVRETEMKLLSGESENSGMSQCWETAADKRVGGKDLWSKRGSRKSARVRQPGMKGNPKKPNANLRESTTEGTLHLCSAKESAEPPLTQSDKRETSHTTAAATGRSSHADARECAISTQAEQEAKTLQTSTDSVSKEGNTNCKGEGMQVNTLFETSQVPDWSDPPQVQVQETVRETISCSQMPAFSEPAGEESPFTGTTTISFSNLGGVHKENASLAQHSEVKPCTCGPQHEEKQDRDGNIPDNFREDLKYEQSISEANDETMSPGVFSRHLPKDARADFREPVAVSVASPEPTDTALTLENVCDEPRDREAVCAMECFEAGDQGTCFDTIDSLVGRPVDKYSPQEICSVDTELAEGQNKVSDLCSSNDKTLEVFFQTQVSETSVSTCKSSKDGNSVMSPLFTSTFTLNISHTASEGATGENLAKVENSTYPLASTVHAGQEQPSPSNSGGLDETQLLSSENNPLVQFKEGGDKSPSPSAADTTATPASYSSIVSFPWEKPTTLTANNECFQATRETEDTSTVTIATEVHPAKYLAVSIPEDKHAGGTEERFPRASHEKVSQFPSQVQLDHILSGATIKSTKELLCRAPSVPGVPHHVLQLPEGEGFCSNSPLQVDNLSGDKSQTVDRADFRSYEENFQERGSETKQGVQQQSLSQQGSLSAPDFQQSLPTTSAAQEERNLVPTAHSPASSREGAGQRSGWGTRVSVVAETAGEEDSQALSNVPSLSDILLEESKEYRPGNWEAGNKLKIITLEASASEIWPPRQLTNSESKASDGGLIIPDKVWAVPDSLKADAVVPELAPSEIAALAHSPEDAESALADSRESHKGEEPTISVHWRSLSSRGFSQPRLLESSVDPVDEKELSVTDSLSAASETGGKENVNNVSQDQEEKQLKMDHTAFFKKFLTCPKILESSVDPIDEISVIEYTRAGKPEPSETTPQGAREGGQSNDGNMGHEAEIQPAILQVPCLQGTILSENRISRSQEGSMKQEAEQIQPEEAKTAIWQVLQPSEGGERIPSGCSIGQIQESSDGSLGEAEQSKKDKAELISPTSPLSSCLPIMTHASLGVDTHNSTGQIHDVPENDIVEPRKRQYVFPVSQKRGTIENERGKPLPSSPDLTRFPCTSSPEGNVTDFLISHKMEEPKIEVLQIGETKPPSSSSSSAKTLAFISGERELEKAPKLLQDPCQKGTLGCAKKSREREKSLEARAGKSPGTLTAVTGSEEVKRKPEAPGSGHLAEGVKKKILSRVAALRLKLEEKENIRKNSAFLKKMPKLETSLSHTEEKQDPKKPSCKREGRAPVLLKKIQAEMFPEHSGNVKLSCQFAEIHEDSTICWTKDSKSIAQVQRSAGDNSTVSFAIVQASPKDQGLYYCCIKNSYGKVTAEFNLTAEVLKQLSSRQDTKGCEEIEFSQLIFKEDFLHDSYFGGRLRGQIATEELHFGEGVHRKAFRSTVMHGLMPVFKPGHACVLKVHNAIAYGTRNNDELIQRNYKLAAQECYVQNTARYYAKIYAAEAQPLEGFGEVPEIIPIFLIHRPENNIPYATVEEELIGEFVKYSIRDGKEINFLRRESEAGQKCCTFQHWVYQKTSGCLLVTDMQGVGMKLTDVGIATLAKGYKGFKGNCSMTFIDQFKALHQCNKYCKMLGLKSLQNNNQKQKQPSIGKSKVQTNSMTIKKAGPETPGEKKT

B1: LZTR1 R810W-FLAG (other, human, UniProt Q8N653 1-840, looked up)
chain: MAGPGSTGGQIGAAALAGGARSKVAPSVDFDHSCSDSVEYLTLNFGPFETVHRWRRLPPCDEFVGARRSKHTVVAYKDAIYVFGGDNGKTMLNDLLRFDVKDCSWCRAFTTGTPPAPRYHHSAVVYGSSMFVFGGYTGDIYSNSNLKNKNDLFEYKFATGQWTEWKIEGRLPVARSAHGATVYSDKLWIFAGYDGNARLNDMWTIGLQDRELTCWEEVAQSGEIPPSCCNFPVAVCRDKMFVFSGQSGAKITNNLFQFEFKDKTWTRIPTEHLLRGSPPPPQRRYGHTMVAFDRHLYVFGGAADNTLPNELHCYDVDFQTWEVVQPSSDSEVGGAEVPERACASEEVPTLTYEERVGFKKSRDVFGLDFGTTSAKQPTQPASELPSGRLFHAAAVISDAMYIFGGTVDNNIRSGEMYRFQFSCYPKCTLHEDYGRLWESRQFCDVEFVLGEKEECVQGHVAIVTARSRWLRRKITQARERLAQKLEQEAAPVPREAPGVAAGGARPPLLHVAIREAEARPFEVLMQFLYTDKIKYPRKGHVEDVLLIMDVYKLALSFQLCRLEQLCRQYIEASVDLQNVLVVCESAARLQLSQLKEHCLNFVVKESHFNQVIMMKEFERLSSPLIVEIVRRKQQPPPRTPLDQPVDIGTSLIQDMKAYLEGAGAEFCDITLLLDGHPRPAHKAILAARSSYFEAMFRSFMPEDGQVNISIGEMVPSRQAFESMLRYIYYGEVNMPPEDSLYLFAAPYYYGFYNNRLQAYCKQNLEMNVTVQNVLQILEAADKTQALDMKRHCLHIIVHQFTKVSKLPTLWSLSQQLLLDIIDSLASHISDKQCAELGADI
notes: Stably expressed in U87 cells by lentivirus; also called LZTR1-FLAG-R810W; LZTR1 RW; not shown: FLAG tag
B1: binds (ALPK2); binds (RAPH1).
